Reference: patent US20120149104A1

Tests used:
[1] = target: SNAP-25 peptide comprising amino acids 134-197 of SEQ ID NO: 5 (human); assay: SPR (BIAcore 3000), peptide on CM5 chip, antibody in flow
[2] = target: SNAP-25 peptide comprising amino acids 134-206 of SEQ ID NO: 5 (human); assay: as above

“MC-6050 mouse α-SNAP-25 monoclonal antibody (Research & Diagnostic Antibodies)” showed a Kd [1] of 0.000497 µM, a koff [1] of 0.000882 s⁻¹ and a kon [1] of 1.78e+06 M⁻¹ s⁻¹. It also gave a Kd [2] of 19.8 µM, a koff [2] of 0.00607 s⁻¹ and a kon [2] of 306 M⁻¹ s⁻¹.

In the case of “MC-6053 mouse α-SNAP-25 monoclonal antibody (Research & Diagnostic Antibodies)”, the Kd [1] is reported as 0.000508 µM, the koff [1] is reported as 0.00118 s⁻¹ and the kon [1] is reported as 2.32e+06 M⁻¹ s⁻¹. It also gave a Kd [2] of 0.24 µM and a koff [2] of 2.56e-05 s⁻¹.
